In publication PMC4576867 (The Journal of Cell Biology, 2015):

Target: the molecule itself
Assay: AUC

B1: cytosolic domain of S. cerevisiae Sey1p (residues 1-680) (domain or fragment, UniProt Q99287 1-680, looked up)
chain: MADRPAIQLIDEEKEFHQSALQYFQQCIGNRDVGLDYHVISVFGSQSSGKSTLLNVLFNTNFDTMDAQVKRQQTTKGIWLAHTKQVNTTIEIDNDRPDIFVLDVEGSDGSERGEDQDFERKAALFAIAVSEVLIVNMWEQQIGLYQGNNMALLKTVFEVNLSLFGKNDNDHKVLLLFVIRDHVGVTPLSSLSDSVTRELEKIWTELSKPAGCEGSSLYDYFDLKFVGLAHKLLQEDKFTQDVKKLGDSFVMKGTENYYFKPQYHHRLPLDGWTMYAENCWDQIERNKDLDLPTQQILVARFKTEEISNEALEEFISKYDESIAPLKGNLGSLTSQLVKLKEECLTKYDEQASRYARNVYMEKREALNTKLNSHISGTINEFLESLMEKLWDDLKLEVSSRDKATTSFVESVAAGKSKIEKEFNESMETFKKLGLLISNEEITCKFSDDIEERIKQLRDAELKAKIGRIKKNLVPELKDHVIHLLSHPSKKVWDDIMNDFESTIKDNISAYQVEKDKYDFKIGLSESENAKIYKNIRILAWRTLDTTVHDYLKIDTIVSILRDRFEDVFRYDAEGSPRLWKTEEEIDGAFRVAKEHALEVFEVLSLAVTSDNVEIIPDVPMAEEESGEDNEIYRDNEGVFHSRRFAHILTELQKENVLDQFRRQINITVLDSKRSIITTRT
stoichiometry N: 2
